For series [1], the target named is T1, recombinant rat thioredoxin-fused AR ligand binding domain (PanVera, 48.4 kDa), P15207.
T1 chain: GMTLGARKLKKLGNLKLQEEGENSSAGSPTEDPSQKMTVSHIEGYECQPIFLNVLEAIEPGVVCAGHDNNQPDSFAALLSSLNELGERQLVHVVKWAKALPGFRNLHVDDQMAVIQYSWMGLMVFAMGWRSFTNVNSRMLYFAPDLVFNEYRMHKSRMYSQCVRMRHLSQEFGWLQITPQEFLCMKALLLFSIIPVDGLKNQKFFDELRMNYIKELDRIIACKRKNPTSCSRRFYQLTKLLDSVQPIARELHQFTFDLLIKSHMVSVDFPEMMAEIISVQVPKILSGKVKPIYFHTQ

For series [2], the target named is T2, recombinant rat thioredoxin-fused AR ligand binding domain (PanVera, 48.4 kDa) (rat, UniProt P15207 606-902).
T2 sequence (looked up): T1 chain
Nature of the series: cell-based or functional assay.

One molecule from US20100048709A1 (UNIVERSITY OF BRITISH COLUMBIA, published 2010) can be followed below.

B1: purified His-tagged-DDC protein (6x-His N-terminal fusion of dopa decarboxylase) (enzyme, human, UniProt P20711 2-480, looked up, not shown: small tags and cut ends)
chain: NASEFRRRGKEMVDYMANYMEGIEGRQVYPDVEPGYLRPLIPAAAPQEPDTFEDIINDVEKIIMPGVTHWHSPYFFAYFPTASSYPAMLADMLCGAIGCIGFSWAASPACTELETVMMDWLGKMLELPKAFLNEKAGEGGGVIQGSASEATLVALLAARTKVIHRLQAASPELTQAAIMEKLVAYSSDQAHSSVERAGLIGGVKLKAIPSDGNFAMRASALQEALERDKAAGLIPFFMVATLGTTTCCSFDNLLEVGPICNKEDIWLHVDAAYAGSAFICPEFRHLLNGVEFADSFNFNPHKWLLVNFDCSAMWVKKRTDLTGAFRLDPTYLKHSHQDSGLITDYRHWQIPLGRRFRSLKMWFVFRMYGVKGLQAYIRKHVQLSHEFESLVRQDPRFEICVEVILGLVCFRLKGSNKVNEALLQRINSAKKIHLVPCHLRDKFVLRFAICSRTVESAHVQRAWEHIKELAADVLRAERE
On to B1, for which, in series [1], the “R1881 concentration required to 50% saturate total AR-LBD protein” value was “in the absence of His-DDC, an R1881 concentration of 883 nM was required to 50% saturate total AR-LBD protein, while in the presence of His-DDC a lower androgen amount of 425 nM was necessary”. Moreover, in series [2], the “apparent affinity for androgen (R1881) by the AR-LBD, hydroxylapatite pulldown ligand binding assay” value was found to be 2.1 fold; the “increase in bound R1881 at 100 nM R1881” value is 1.75 fold; the “increase in bound R1881 at 1000 nM R1881” value came to 1.71 fold.
